Reference: publication PMC13054468 (Analytical chemistry, 2025)
“And” between values parts separate entries of the source, which are not always exact repeats. Equal values may be shown once.

B1: cholera toxin B (natural protein)
chain: TPQNITDLCAEYHNTQIYTLNDKIFSYTESLAGKREMAIITFKNGAIFQVEVPGSQHIDSQKKAIERMKDTLRIAYLTEAKVEKLCVWNNKTPHAIAAISMAN
notes: also called CTB

Experiments:
[1] = target: hepatitis B virus (HBV) capsid protein (hepatitis B virus) (UniProt P03146); assay: native MS
native MS = target: the molecule itself; assay: native MS

Molecule | stoichiometry N [1] | binding result (native MS)
hepatitis B virus (HBV) capsid protein (from UniProt P03146 1-183) (natural protein) | 240 and 180 | 
B1 |  | binds
